Data reported in patent publication US20110305749A1, “HIV-1 Envelope Polypeptides for HIV Vaccine” (priority 2008, published 2011).
Read-outs that look alike come from different tables or passages of the source.

Experiments:
[1] = tested on: Human Peripheral Blood Mononuclear Cells (PBMC); assay: Immunosuppression of selected peptides: Con A stimulated lymphocyte proliferation (EdU incorporation); format: cell-based; settings: Con A (5 ug/mL); for inhibition profile of proliferation at various peptide concentrations: dose-dependence (FIG. 11); for inhibition of lymphocyte proliferation: peptide concentration of 50 uM, 72 hrs, relative to Con A stimulated cells without peptide (FIG. 10)
Text: The peptides are dimerized via the C-terminal Cysteines and added at the concentrations indicated below.

Human PBMC = assay: Mixed leukocyte reaction: PBMC stimulated by Jurkat cells expressing HIV envelope variants; settings: PBMC with Mitomycin C arrested Jurkat stimulator cells expressing the envelope, 1:1, 96 hrs (FIG. 12)
Method: The experiment utilizes Human PBMC prepared fresh from healthy donors. These are stimulated by adding a human T cell line (Jurkat) at a 1:1 ratio. The jurkat cells have been irreversible arrested by incubating them with 50 ug/mL Mitomycin C for 1 hour prior to PBMC stimulation. Cultures are maintained and lymphocyte proliferation is measured 96 hrs later by EdU incorporation and Click-iT labelling with Oregon Green (Invitrogen, Denmark) as recommended by the manufacturer. The degree of activated lymphocytes is proportional to the flourescence detection.

IFN-gamma = assay: Cytokine modulation: IFN-gamma in supernatant of ConA stimulated PBMC (ELISA); settings: 50 uM peptide, Con A stimulation of PBMC, 72 hrs, ELISA (FIG. 14)
Method: (§1) Donor PBMC's were maintained at 10^5 cells/well in a 96-well. […] After 72 hrs, lymphocyte proliferation was measured and supernatants analysed by ELISA for levels of the proinflammatory cytokines, IFN-gamma (FIG. 14 grey bar) and TNF-alpha (FIG. 14 black bar).

TNF-alpha = assay: Cytokine modulation: TNF-alpha in supernatant of ConA stimulated PBMC (ELISA); settings: 50 uM peptide, Con A stimulation of PBMC, 72 hrs, ELISA (FIG. 14)
Method: as §1

BAB/No Ag = settings: R, i.m.; cited from earlier work
HIV-1 [2] = settings: M, cited from earlier work
Influenza = settings: M, i.m.; cited from earlier work
[3] = HSV-3; M, i.m./i.d.; cited from earlier work
HIV-1 [4] = settings: C, i.m.; cited from earlier work
HSV-2 = settings: M, i.m.; cited from earlier work
β-gal = settings: M, i.m.; cited from earlier work

For “LQARILAVETLIQNQQLLNLWGC [HIV M/O chimera]”, which “inhibition profile of proliferation at various peptide concentrations” value [1] is on record?
The value was “less steep”.

What about the “inhibition of lymphocyte proliferation” value [1] of the same molecule?
The value was 22%.

What about the “lymphocyte proliferation (activation of PBMC)” value (Human PBMC) of the same molecule?
The value was “decrease is relieved”.

Which “inhibition of lymphocyte proliferation” value [1] does the source give for LQARVLAVERYLKDQQLLGIWGC [CS-3] here?
Its value is 82%.

What about the IFN-γ secretion (IFN-gamma) of the same molecule?
The IFN-γ secretion was “significantly reduces”.

What about the TNF-α secretion (TNF-alpha) of the same molecule?
The TNF-α secretion was “significantly reduces”.

With LQARVLAVERYLKDQQLLRIWGC [HIV G19R] as the molecule, how does the “inhibition profile of proliferation at various peptide concentrations” value [1] read?
Its value is “less steep”.

And the “inhibition of lymphocyte proliferation” value [1]?
The value was 15%.

For “LQNRRGLDLLFLKEGGLC (HIV) [CKS-17, reference compound]”, which “inhibition of lymphocyte proliferation” value [1] is on record?
Its value is 93%.

For MCP-1, which “Effects: Ab/IgG” value (BAB/No Ag) is on record?
The value was “↑^e”.

What about the “Effects: Protection” value (BAB/No Ag) of the same molecule?
Its value is “↑”.

For RANTES, which “Effects: Ab/IgG” value (BAB/No Ag) is on record?
Its value is “↑^e”.

And the “Effects: Protection” value (BAB/No Ag)?
Its value is “=”.

And the “Effects: CTL” value (HIV-1 [2]; i.m.)?
Its value is “↑”.

B1: CD86 (protein, UniProt P42082 24-309, looked up)
T-lymphocyte activation …: VSVETQAYFNGTAYLPCPFTKAQNISLSELVVFWQDQQKLVLYEHYLGTEKLDSVNAKYLGRTSFDRNNWTLRLHNVQIKDMGSYDCFIQKKPPTGSIILQQTLTELSVIANFSEPEIKLAQNVTGNSGINLTCTSKQGHPKPKKMYFLITNSTNEYGDNMQISQDNVTELFSISNSLSLSFPDGVWHMTVVCVLETESMKISSKPLNFTQEFPSPQTYWKEITASVTVALLLVMLLIIVCHKKPNQPSRPSNTASKLERDSNADRETINLKELEPQIASAKPNAE
What does the source list for B1?
Effects: Ab/IgG (HIV-1 [2]; i.m.): =; Effects: CTL (HIV-1 [2]; i.m.): ↑; Effects: DTH (HIV-1 [2]; i.m.): ↑; Effects: IgG1/IgG2a (HIV-1 [2]; i.m.): =; Effects: CTL (Influenza): ↑; Effects: Ab/IgG [3]: =; Effects: DTH [3]: =; Effects: IgG1/IgG2a [3]: =; Effects: Protection [3]: =; Effects: CTL (HIV-1 [4]): ↑

B2: MIP-1α (protein, UniProt P10855 24-92, looked up)
C-C motif chemokine 3: APYGADTPTACCFSYSRKIPRQFIVDYFETSSLCSQPGVIFLTKRNRQICADSKETWVQEYITDLELNA
What does the source list for B2?
Effects: Ab/IgG (BAB/No Ag): ↑^e; Effects: Protection (BAB/No Ag): ↑; Effects: Ab/IgG (HIV-1 [2]; i.m./i.n.): ↑; Effects: CTL (HIV-1 [2]; i.m./i.n.): ↑; Effects: DTH (HIV-1 [2]; i.m./i.n.): ↑; Effects: IgG1/IgG2a (HIV-1 [2]; i.m./i.n.): ↓; Effects: CTL (HIV-1 [2]; i.m.): ↑; Effects: IgG1/IgG2a (HIV-1 [2]; i.m.): ↑

B3: MIP-1β (protein, UniProt P14097 24-92, looked up)
C-C motif chemokine 4: APMGSDPPTSCCFSYTSRQLHRSFVMDYYETSSLCSKPAVVFLTKRGRQICANPSEPWVTEYMSDLELN
Which results are given for B3?
Effects: Ab/IgG (BAB/No Ag): ↑^e; Effects: Protection (BAB/No Ag): ↓

B4: CD80 (protein, UniProt Q00609 38-306, looked up)
T-lymphocyte activation …: VDEQLSKSVKDKVLLPCRYNSPHEDESEDRIYWQKHDKVVLSVIAGKLKVWPEYKNRTLYDNTTYSLIILGLVLSDRGTYSCVVQKKERGTYEVKHLALVKLSIKADFSTPNITESGNPSADTKRITCFASGGFPKPRFSWLENGRELPGINTTISQDPESELYTISSQLDFNTTRNHTIKCLIKYGDAHVSEDFTWEKPPEDPPDSKNTLVLFGAGFGAVITVVVIVVIIKCFCKHRSCFRRNEASRETNNSLTFGPEEALAEQTVFL
With B4 as the molecule, how does the “Effects: Ab/IgG” value (HIV-1 [2]; i.m.) read?
Its value is “=”.

What about the “Effects: CTL” value (HIV-1 [2]; i.m.) of the same molecule?
Its value is “=”.

What about the “Effects: DTH” value (HIV-1 [2]; i.m.) of the same molecule?
The value was “=”.

What about the “Effects: Ab/IgG” value (HSV-2) of the same molecule?
Its value is “=”.

What about the “Effects: DTH” value (HSV-2) of the same molecule?
The value was “= and ↑”.

And the “Effects: IgG1/IgG2a” value (HSV-2)?
Its value is “=”.

What about the “Effects: Protection” value (HSV-2) of the same molecule?
The value was “= and ↑”.

What about the “Effects: CTL” value (Influenza) of the same molecule?
Its value is “=”.

B5: TCA-3 (protein, UniProt P10146 24-92, looked up)
C-C motif chemokine 1: KSMLTVSNSCCLNTLKKELPLKFIQCYRKMGSSCPDPPAVVFRLNKGRESCASTNKTWVQNHLKKVNPC
For B5, which “Effects: Ab/IgG” value (HIV-1 [2]; i.m.) is on record?
Its value is “↓”.

What about the “Effects: CTL” value (HIV-1 [2]; i.m.) of the same molecule?
The value was “↑”.

And the “Effects: DTH” value (HIV-1 [2]; i.m.)?
Its value is “↑”.

And the “Effects: IgG1/IgG2a” value (HIV-1 [2]; i.m.)?
The value was “↓”.

B6: CD40L (protein, UniProt P27548 112-260, looked up)
CD40 ligand, soluble form: MQRGDEDPQIAAHVVSEANSNAASVLQWAKKGYYTMKSNLVMLENGKQLTVKREGLYYVYTQVTFCSNREPSSQRPFIVGLWLKPSSGSERILLKAANTHSSSQLCEQQSVHLGGVFELQAGASVFVNVTEASQVIHRVGFSSFGLLKL
Which results are given for B6?
Effects: Ab/IgG (β-gal): ↑; Effects: CTL (β-gal): ↑; Effects: IgG1/IgG2a (β-gal): ↓; Effects: Protection (β-gal): ↑
